# Data taken from article PMC4224142.
# Target: JunD, endogenous in LNCaP cells (human (endogenous in LNCaP)) (UniProt P17535)
# Test: proximity ligation
# Chain of UniProt P17535 (P17535 whole entry): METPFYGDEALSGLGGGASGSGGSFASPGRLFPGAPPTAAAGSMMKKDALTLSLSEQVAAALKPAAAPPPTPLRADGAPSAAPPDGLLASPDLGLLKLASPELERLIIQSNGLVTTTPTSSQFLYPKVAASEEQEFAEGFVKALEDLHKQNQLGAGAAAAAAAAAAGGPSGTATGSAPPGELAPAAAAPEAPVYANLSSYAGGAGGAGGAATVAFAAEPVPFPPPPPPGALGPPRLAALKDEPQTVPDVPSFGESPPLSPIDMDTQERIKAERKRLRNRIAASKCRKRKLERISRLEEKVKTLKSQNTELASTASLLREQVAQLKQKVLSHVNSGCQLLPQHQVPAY
substance,measurement,value
"Androgen receptor (AR), endogenous in LNCaP cells (from UniProt P10275 1-920)",fold induction of PLA spots per cell by androgen (against cells without R1881),3 fold
